Source: patent KR20200059381A

Columns and labels:
[1] = target: 구제역 바이러스 혈청형 O 배양액(cal1~cal4) (Foot-and-mouth disease virus serotype O); test: sandwich ELISA, cal3, 1E58 coat 2 ug/ml, 1E58-HRP 0.4 ug/ml, 450 nm
[2] = target: 구제역 바이러스 혈청형 O 배양액(cal1~cal4) (Foot-and-mouth disease virus serotype O); test: sandwich ELISA, cal3, 1E58 coat 4 ug/ml, 1E58-HRP 0.2 ug/ml, 450 nm
[3] = target: 구제역 바이러스 혈청형 O 배양액(cal1~cal4) (Foot-and-mouth disease virus serotype O); test: sandwich ELISA, cal2, 1E58 coat 2 ug/ml, 1E58-HRP 0.6 ug/ml, 450 nm
[4] = target: 구제역 바이러스 혈청형 O 배양액(cal1~cal4) (Foot-and-mouth disease virus serotype O); test: sandwich ELISA, cal3, 1E58 coat 4 ug/ml, 1E58-HRP 0.6 ug/ml, 450 nm
[5] = target: 구제역 바이러스 혈청형 O 배양액(cal1~cal4) (Foot-and-mouth disease virus serotype O); test: sandwich ELISA, cal4, 1E58 coat 1 ug/ml, 1E58-HRP 0.8 ug/ml, 450 nm
[6] = target: 구제역 바이러스 혈청형 O 배양액(cal1~cal4) (Foot-and-mouth disease virus serotype O); test: sandwich ELISA, cal2, 1E58 coat 1 ug/ml, 1E58-HRP 0.4 ug/ml, 450 nm
[7] = target: 구제역 바이러스 혈청형 O 배양액(cal1~cal4) (Foot-and-mouth disease virus serotype O); test: sandwich ELISA, cal4, 1E58 coat 2 ug/ml, 1E58-HRP 0.2 ug/ml, 450 nm
[8] = target: 구제역 바이러스 혈청형 O 배양액(cal1~cal4) (Foot-and-mouth disease virus serotype O); test: sandwich ELISA, cal2, 1E58 coat 4 ug/ml, 1E58-HRP 0.2 ug/ml, 450 nm
[9] = target: 구제역 바이러스 혈청형 O 배양액(cal1~cal4) (Foot-and-mouth disease virus serotype O); test: sandwich ELISA, cal3, 1E58 coat 1 ug/ml, 1E58-HRP 0.6 ug/ml, 450 nm
[10] = target: FMDV 혈청형 Asia1 Shamir (Foot-and-mouth disease virus serotype Asia1); test: sandwich ELISA, 1E58 coat 4 ug/ml, 1E58-HRP 0.3 ug/ml, virus culture fluid
[11] = target: FMDV 혈청형 A Malaysia97 (Foot-and-mouth disease virus serotype A); test: as above
[12] = target: FMDV 혈청형 Asia1 CAM/9/80 (Foot-and-mouth disease virus serotype Asia1); test: as above
[13] = target: FMDV 혈청형 O 김제 (Foot-and-mouth disease virus serotype O); test: as above
[14] = target: FMDV 혈청형 O O1 Manisa (Foot-and-mouth disease virus serotype O); test: as above
[15] = target: FMDV 혈청형 A A22 Iraq (Foot-and-mouth disease virus serotype A); test: as above
[16] = target: FMDV 혈청형 Asia1 MOG/05 (Foot-and-mouth disease virus serotype Asia1); test: as above
[17] = target: FMDV 혈청형 O Yunlin/Taiwan/97 (Foot-and-mouth disease virus serotype O); test: as above
[18] = target: FMDV 혈청형 SAT2 SAT2/ZIM/5/81 (Foot-and-mouth disease virus serotype SAT2); test: as above
[19] = target: FMDV 혈청형 O Primorsky (Foot-and-mouth disease virus serotype O); test: as above
[20] = target: FMDV 혈청형 O Campos (Foot-and-mouth disease virus serotype O); test: as above
[21] = target: FMDV 혈청형 O O/Hapcheon/KOR/2014 (Foot-and-mouth disease virus serotype O); test: as above
[22] = target: FMDV 혈청형 A 연천주 (Foot-and-mouth disease virus serotype A); test: as above
[23] = target: FMDV 혈청형 C C3/Resende/BRA/55 (Foot-and-mouth disease virus serotype C); test: as above
[24] = target: FMDV 혈청형 O Yang-Ju (Foot-and-mouth disease virus serotype O); test: as above
[25] = target: FMDV 혈청형 SAT3 SAT3/ZIM/4/81 (Foot-and-mouth disease virus serotype SAT3); test: as above
[26] = target: FMDV 혈청형 O 보은 1차 (Foot-and-mouth disease virus serotype O); test: as above
[27] = target: 구제역 바이러스 혈청형 O 배양액(cal1~cal4) (Foot-and-mouth disease virus serotype O); test: sandwich ELISA, cal4, 1E58 coat 1 ug/ml, 1E58-HRP 0.2 ug/ml, 450 nm
[28] = target: 구제역 바이러스 혈청형 O 배양액(cal1~cal4) (Foot-and-mouth disease virus serotype O); test: sandwich ELISA, cal3, 1E58 coat 1 ug/ml, 1E58-HRP 0.4 ug/ml, 450 nm
[29] = target: 구제역 바이러스 혈청형 O 배양액(cal1~cal4) (Foot-and-mouth disease virus serotype O); test: sandwich ELISA, cal1, 1E58 coat 8 ug/ml, 1E58-HRP 0.4 ug/ml, 450 nm

B1: 단클론항체 1E58 (antibody, V domains shown)
VH: EFQLQQSRPELAKPGASVKISCKTSGHTFTTYTMHWVKQSHVKSLEWIGCFNPNNGGATYNQKFKGKATLTMDKSSNTAYVEVRSLTSDDSAVYYCAYGNYVNFDYWGQGTTLTVSS
VL: DIVLTQSPASLAVSLGQRATISYRASKSVSTSGYSYMHWNQQKPGQPPRLLIYLVSNLESGVPARFSGSGSGTDFTLNIHPVEEEDAATYYCQHIRELTRSEGGPSWKN
B1 was tested, and the O.D [1] was 1.37 O.D, the O.D [2] was 1.14 O.D and the O.D [3] was 3.42 O.D. It also gave an O.D [4] of 2.15 O.D, an O.D [5] of 1.07 O.D and an O.D [6] of 1.4 O.D. It also gave an O.D [7] of 0.62 O.D, an O.D [8] of 2.09 O.D and an O.D [9] of 0.83 O.D. For the same binder, the O.D (450nm) [10] was 4 O.D, the O.D (450nm) [11] was 4 O.D and the O.D (450nm) [12] was 4 O.D. For the same binder, the O.D (450nm) [13] was 4 O.D, the O.D (450nm) [14] was 4 O.D and the O.D (450nm) [15] was 3.79 O.D. It also gave an O.D (450nm) [16] of 3.85 O.D, an O.D (450nm) [17] of 4 O.D and an O.D (450nm) [18] of 1.95 O.D. For the same binder, the O.D (450nm) [19] was 4 O.D, the O.D (450nm) [20] was 3.96 O.D and the O.D (450nm) [21] was 3.99 O.D. For the same binder, the O.D (450nm) [22] was 3.5 O.D, the O.D (450nm) [23] was 3.75 O.D and the O.D (450nm) [24] was 4 O.D. The O.D (450nm) [25] was 3.6 O.D, the O.D (450nm) [26] was 3.64 O.D and the O.D [27] was 0.5 O.D. The O.D [28] was 0.77 O.D and the O.D [29] was 3.18 O.D.
